# Test results reported in patent US9885709B2, “Determination of a midregional proadrenomedullin partial peptide in biological fluids for diagnostic purposes, and immunoassays for carrying out such a determination” (B.R.A.H.M.S. GMBH, priority 2003, dated 2018).
# “And” between values parts separate entries of the source, which are not always exact repeats. Equal entries are not always repeated.
# Assay: Stability investigation of mid-proAM in sepsis sera stored at room temperature
# Assay type: in vitro ADME
# Text: For examining the question as to whether problems are likely in a measurement of mid-proAM because of insufficient stability of the mid-proAM in a sample or measuring solution, 20 sepsis sera were each measured in a fresh state and after storage for 3 days at room temperature. […] This proven stability of mid-proAM is a major advantage in terms of handling aspects for diagnosis.
substance,measurement,setting,value
"mid-proAM: peptide which contains the amino acids 45-92 of pre-proAM or consists thereof (SEQ ID NO:3); endogenous analyte, also synthesized as standard (ELRMSSSYPTGLADVKAGPAQTLIRPQDMKGASRSPEDSSPDAARIRV; listed as Homo sapiens)",immunoreactivity after storage,"20 sepsis sera, storage for 3 days at room temperature",virtually unchanged
same,Change,"Day 3 value as percent of Day 0 value, individual sepsis serum, 3 days at room temperature",92.7% and 95.7% and 109.6% and 102.8% and 96.4% and 99.9% and 106.3% and 102.1% and 95.2% and 110.7% and 80.0% and 105.5% and 102.2% and 103.4% and 89.5% and 94.1% and 98.8% and 98.1% and 97.0% and 95.4%
same,mid-proAM Day = 3,"individual sepsis serum (one patient), after storage for 3 days at room temperature",1.0 nmol/l and 1.2 nmol/l and 2.1 nmol/l (2×) and 2.7 nmol/l (2×) and 3.1 nmol/l and 4.9 nmol/l and 5.9 nmol/l and 3.4 nmol/l and 4.6 nmol/l and 2.4 nmol/l and 1.3 nmol/l and 1.5 nmol/l (2×) and 1.8 nmol/l (2×) and 2.0 nmol/l and 6.1 nmol/l and 3.2 nmol/l
same,mid-proAM Day = 0,"individual sepsis serum (one patient), measured in a fresh state",1.1 nmol/L and 1.3 nmol/L and 1.9 nmol/L and 2.6 nmol/L and 2.8 nmol/L and 3.1 nmol/L and 4.6 nmol/L and 5.8 nmol/L and 3.6 nmol/L and 4.2 nmol/L and 3.0 nmol/L and 1.2 nmol/L and 1.5 nmol/L and 1.7 nmol/L and 2.0 nmol/L and 2.1 nmol/L and 6.2 nmol/L and 3.3 nmol/L and 2.2 nmol/L and 1.6 nmol/L
